We go through 2 molecules from article PMC8664259.

The target of this data set is T1, TAF7 (WT) (UniProt Q15545 1-349).
T1 sequence: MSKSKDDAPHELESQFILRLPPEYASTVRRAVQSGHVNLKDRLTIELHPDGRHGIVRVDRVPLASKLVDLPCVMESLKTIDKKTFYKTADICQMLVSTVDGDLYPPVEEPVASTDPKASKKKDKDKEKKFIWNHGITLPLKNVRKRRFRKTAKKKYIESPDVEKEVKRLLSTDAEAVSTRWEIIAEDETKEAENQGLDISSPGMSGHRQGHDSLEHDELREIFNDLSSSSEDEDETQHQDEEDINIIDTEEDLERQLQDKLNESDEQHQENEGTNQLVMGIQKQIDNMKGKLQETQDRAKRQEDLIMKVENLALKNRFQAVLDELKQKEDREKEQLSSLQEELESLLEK
The data set can be described thus: EMSA.

With GGCAGAUCUGAGCCUGGGAGCUCUCUGCC (structured_RNA) [HIV-1 TAR RNA], the binding result is “binds”. With GGCAGAAAGGAGCAUUGGAGCUCUCUGCC (structured_RNA) [TARmut RNA] the entry was “no binding”.
